Like-named read-outs stand apart in the source and are kept apart here.
T1: human IL-2Rβ (human, UniProt P14784 27-240, limits assumed)
T1 construct: also called hIL-2Rβ; IL-2 receptor beta
T1 sequence (looked up): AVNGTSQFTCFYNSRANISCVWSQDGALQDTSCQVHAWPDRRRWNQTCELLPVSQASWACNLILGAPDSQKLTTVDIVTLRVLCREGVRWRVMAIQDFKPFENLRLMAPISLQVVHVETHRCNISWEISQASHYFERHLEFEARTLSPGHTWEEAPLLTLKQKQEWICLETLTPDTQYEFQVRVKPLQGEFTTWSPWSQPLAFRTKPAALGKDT

T2: mouse PD-1 on doxycycline-induced 32D[pRF770+pRF791] cells (mouse, UniProt Q02242 25-288)
T2 construct: whole, on cells; also called PD-1+ cells; [pRF770+pRF791]+Dox
T2 sequence (looked up): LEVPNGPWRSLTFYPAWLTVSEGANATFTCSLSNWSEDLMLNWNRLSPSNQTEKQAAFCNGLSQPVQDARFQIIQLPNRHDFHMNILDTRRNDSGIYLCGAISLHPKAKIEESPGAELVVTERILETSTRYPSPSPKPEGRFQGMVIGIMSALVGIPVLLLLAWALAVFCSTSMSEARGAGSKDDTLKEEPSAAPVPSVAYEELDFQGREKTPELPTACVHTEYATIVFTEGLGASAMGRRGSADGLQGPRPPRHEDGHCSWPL

T3: IL-15 signaling receptor on 32D[pRF770+pRF791] cells (human CD122 plus mouse CD132) (human; mouse, UniProt P14784 27-551; P34902 23-369)
T3 sequence (looked up) 1: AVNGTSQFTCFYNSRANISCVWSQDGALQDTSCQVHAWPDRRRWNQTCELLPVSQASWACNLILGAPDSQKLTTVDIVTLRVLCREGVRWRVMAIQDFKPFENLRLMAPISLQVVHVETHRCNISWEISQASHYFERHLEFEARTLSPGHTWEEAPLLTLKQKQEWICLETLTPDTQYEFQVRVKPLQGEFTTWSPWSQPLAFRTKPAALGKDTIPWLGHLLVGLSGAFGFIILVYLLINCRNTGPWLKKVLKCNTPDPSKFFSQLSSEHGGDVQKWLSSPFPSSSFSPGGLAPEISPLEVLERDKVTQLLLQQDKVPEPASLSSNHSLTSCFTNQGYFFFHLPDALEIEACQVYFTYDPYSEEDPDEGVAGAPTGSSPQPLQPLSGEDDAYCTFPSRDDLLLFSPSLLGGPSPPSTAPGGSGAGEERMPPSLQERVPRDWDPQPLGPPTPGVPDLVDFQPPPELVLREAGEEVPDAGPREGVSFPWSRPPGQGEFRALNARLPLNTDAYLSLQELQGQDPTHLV
T3 sequence (looked up) 2: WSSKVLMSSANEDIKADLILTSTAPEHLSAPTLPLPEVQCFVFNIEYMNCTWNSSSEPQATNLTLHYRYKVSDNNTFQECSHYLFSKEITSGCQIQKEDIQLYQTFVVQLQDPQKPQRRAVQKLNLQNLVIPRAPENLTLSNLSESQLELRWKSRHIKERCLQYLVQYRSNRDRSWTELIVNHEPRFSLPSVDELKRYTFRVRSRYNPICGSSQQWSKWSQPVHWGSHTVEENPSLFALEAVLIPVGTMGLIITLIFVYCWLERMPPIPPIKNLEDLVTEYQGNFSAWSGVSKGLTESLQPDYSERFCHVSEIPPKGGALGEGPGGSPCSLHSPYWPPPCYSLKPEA


Experiments:
[1] = biological target: T1, human IL-2Rβ; assay: SPR, steady state, fusion captured
Method in brief: (§1)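 Anti-PD-1–hIL-15 fusions captured at 10 μg/mL on an anti-human Fc surface, receptor injected at 37 °C in HEPES-buffered saline with 0.05% Tween-20 and 1 mg/mL BSA, pH 7.4; 5 min dissociation.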

[2] = biological target: T2, mouse PD-1 on doxycycline-induced …; assay: flow cytometry, Alexa647-labelled protein on doxycycline-induced 32D[pRF770+pRF791] cells (mouse PD-1 together with CD122 plus CD132), 4 C 30 min, % A647-positive cells
Protocol: (§2) The following cell lines were suspended in growth medium to 0.7*10\hat{ }6 cells/mL and, cultured for 16 hrs: 1) untransduced 32D (parental line); 2) 32D[pRF770+pRF791]; and 3) 32D[pRF770+pRF791] grown in the presence of 1 ug/mL doxycycline, to induce PD-1 expression. Cultures were then resuspended to a final concentration of 1.0*10\hat{ }6 cells/mL, and 0.1 mL of each suspension was plated into separate wells of a 96-well round-bottom plate, of sufficient number required for the experiment. Each Alexa647-labeled antibody or antibody-cytokine chimeric proteins were then added to a unique well to obtain a final concentration of 500 nM, 100 nM, […], 1 nM, 0.1 nM, 0.01 nM, or 0.001 nM in a given well. Plates were incubated at 4° C. for 30′, and then the cells were pelleted by centrifugation (300×g, 5′) and resuspended in 0.2 mL of PBS. This wash step was repeated twice. Upon final resuspension, the cells were analyzed on an LSRII flow cytometer. Data were analyzed using FlowJo version 10.

[3] = biological target: T2, mouse PD-1 on doxycycline-induced …; assay: cell-based or functional assay
[4] = biological target: T3, IL-15 signaling receptor on …; assay: cell-based or functional assay
[5] = biological target: T2, mouse PD-1 on doxycycline-induced …; assay: cell-based or functional assay; remark: listed apart in the source
[6] = biological target: T3, IL-15 signaling receptor on …; assay: cell-based or functional assay; remark: listed apart in the source
[7] = biological target: T4, human IL-15Rα (human, UniProt Q13261 31-205, limits assumed); assay: SPR 37C, fusion captured by anti-human Fc
T4 construct: also called hIL-15Rα; IL-15 receptor alpha
T4 sequence (Q13261 31-205 limits assumed): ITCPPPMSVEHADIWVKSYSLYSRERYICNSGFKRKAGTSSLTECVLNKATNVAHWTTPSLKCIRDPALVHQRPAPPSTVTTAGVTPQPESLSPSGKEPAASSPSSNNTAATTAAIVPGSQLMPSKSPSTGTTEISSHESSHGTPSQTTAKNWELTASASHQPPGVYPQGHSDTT
Method in brief: as §1

[8] = biological target: T2, mouse PD-1 on doxycycline-induced …; assay: cell-based or functional assay; remark: listed apart in the source
[9] = biological target: T3, IL-15 signaling receptor on …; assay: cell-based or functional assay; remark: listed apart in the source
[10] = biological target: T2, mouse PD-1 on doxycycline-induced …; assay: cell-based or functional assay; remark: listed apart in the source
[11] = biological target: T3, IL-15 signaling receptor on …; assay: cell-based or functional assay; remark: listed apart in the source
[12] = biological target: T3, IL-15 signaling receptor on …; assay: flow cytometry, Alexa647-labelled protein on uninduced 32D[pRF770+pRF791] cells (human CD122 plus mouse CD132), 4 C 30 min, % A647-positive cells
Protocol: as §2

[13] = biological target: T2, mouse PD-1 on doxycycline-induced …; assay: flow cytometry, Alexa647-labelled protein on doxycycline-induced 32D[pRF770+pRF791] cells, 4 C 30 min, % A647-positive cells
Protocol: as §2

| Binder | Kd [1] [nM] | EC50 (read off the curve) [2] [nM] | Fold change = EC50 (PD-1(low))/EC50 (PD-1+) [3] [fold] | pSTAT5 EC50 on PD-1+ 32D reporter cells [3] [pM] | pSTAT5 EC50 on PD-1(low) 32D reporter cells [4] [nM] | Fold change = EC50 (PD-1(low))/EC50 (PD-1+) [5] [fold] | pSTAT5 EC50 on PD-1+ 32D reporter cells [5] [pM] | pSTAT5 EC50 on PD-1(low) 32D reporter cells [6] [nM] | binding result [7] | Fold change = EC50 (PD-1(low))/EC50 (PD-1+) [8] [fold] | pSTAT5 EC50 on PD-1+ 32D reporter cells [8] [pM] | pSTAT5 EC50 on PD-1(low) 32D reporter cells [9] [nM] | Fold change = EC50 (PD-1(low))/EC50 (PD-1+) [10] [fold] | pSTAT5 EC50 on PD-1+ 32D reporter cells [10] [pM] | pSTAT5 EC50 on PD-1(low) 32D reporter cells [11] [nM] | binding result [12] | EC50 (read off the curve) [13] [nM] |
| --- | --- | --- | --- | --- | --- | --- | --- | --- | --- | --- | --- | --- | --- | --- | --- | --- | --- |
| xmPD-1-hIL15 NQ mutant (other, also called xmPD-1-IL15 NQ; xmPD1-IL15 NQ) heavy 1: HHHHHHHHGGGGSGSGGEVQLVESGGGLVKPGGSLELSCAASGFTFSSYWMSWVRQAPEKGLEWVAAISPSGGSTYYADSVKGRFTISRDNAKNTLFLQMTSLRSEDTAMYYCAKESWGAYYDLWGQGTTVTVSSASTKGPSVFPLAPCSRSTSESTAALGCLVKDYFPEPVTVSWNSGALTSGVHTFPAVLQSSGLYSLSSVVTVPSSNFGTQTYTCNVDHKPSNTKVDKTVERKCRVRCPRCPAPPVAGPSVFLFPPKPKDTLMISRTPEVTCVVVAVSHEDPEVQFNWYVDGVEVHNAKTKPREEQFNSTFRVVSVLTVVHQDWLNGKEYKCKVSNKGLPSSIEKTISKTKGQPREPQVYTLPPSREEMTKNQVSLTCLVKGFYPSDIAVEWESNGQPENNYKTTPPMLDSDGSFFLYSRLTVDKSRWQQGNVFSCSVMHEALHNHYTQKSLSLSPGK heavy 2: EVQLVESGGGLVKPGGSLELSCAASGFTFSSYWMSWVRQAPEKGLEWVAAISPSGGSTYYADSVKGRFTISRDNAKNTLFLQMTSLRSEDTAMYYCAKESWGAYYDLWGQGTTVTVSSASTKGPSVFPLAPCSRSTSESTAALGCLVKDYFPEPVTVSWNSGALTSGVHTFPAVLQSSGLYSLSSVVTVPSSNFGTQTYTCNVDHKPSNTKVDKTVERKCEVECPECPAPPVAGPSVFLFPPKPKDTLMISRTPEVTCVVVAVSHEDPEVQFNWYVDGVEVHNAKTKPREEQFNSTFRVVSVLTVVHQDWLNGKEYKCKVSNKGLPSSIEKTISKTKGQPREPQVYTLPPSREEMTKNQVSLTCEVKGFYPSDIAVEWESNGQPENNYKTTPPMLDSDGSFFLYSKLTVDKSRWQQGNVFSCSVMHEALHNHYTQKSLSLSPGSGGGGGTATATPGANWVNVISDLKKIEDLIQSMHINATLFTESDVHPSCKVTAMKCFLLQLQVISLQSGDASIHDTVENLIILANNSLSSNGNVTESGCKECQELEQKNIKEFLQSFVHIVQMFINT light: DIVMTQSPSSLSVSAGDKVTMSCRASQGISSWLAWYQQKPWQPPKLLIYKASTLESGVPDRFTGSGSGTDFTLTISSVQAEDLAVYYCQQSYSTPWTFGGGTKLEIKGTVAAPSVFIFPPSDEQLKSGTASVVCLLNNFYPREAKVQWKVDNALQSGNSQESVTEQDSKDSTYSLSSTLTLSKADYEKHKVYACEVTHQGLSSPVTKSFNRGEC | 518 | ~0.03 | 223 | 90 | 21.1 | 1230 | 10.9 | 13.3 | no binding (tested: 3000 nM) | 241 | 30.3 | 7.29 | 300 | 5.74 | 1.72 | – | – |
| xmPD-1 (antibody, human IgG2, kappa, V domains shown, human IgG2dA constant regions; also called anti-mouse PD-1 antibody; clone F12.3) VH: EVQLVESGGGLVKPGGSLELSCAASGFTFSSYWMSWVRQAPEKGLEWVAAISPSGGSTYYADSVKGRFTISRDNAKNTLFLQMTSLRSEDTAMYYCAKESWGAYYDLWGQGTTVTVSS VL: DIVMTQSPSSLSVSAGDKVTMSCRASQGISSWLAWYQQKPWQPPKLLIYKASTLESGVPDRFTGSGSGTDFTLTISSVQAEDLAVYYCQQSYSTPWTFGGGTKLEIKG | – | – | – | – | – | – | – | – | – | – | – | – | – | – | – | no binding (tested: 500 nM) | ~0.03 |

— patent US20210324028A1 (Pfizer, published 2021)
